Data as given in PMC3407147, “Therapeutic Inhibition of Pro-Inflammatory Signaling and Toxicity to Staphylococcal Enterotoxin B by a Synthetic Dimeric BB-Loop Mimetic of MyD88” (PLoS ONE, 2012).

Biological target: the molecule itself
Experiment: peptide or protein array; MyD88 TIR domain monomer spotted in quadruplicate on nitrocellulose-coated slides; biotinylated MyD88 (25 µg/ml) in 50 mM Hepes, 0.1% Tween, 3% human antibody serum, 2 h at room temperature; detected with streptavidin-Alexa Fluor 647; with or without pre-incubation with EM-163 (100 and 50 µg/ml) or DMSO

B1: recombinant MyD88 TIR domain (amino acids 157-296) (domain or fragment, human, UniProt Q99836 157-296, looked up)
chain: MPERFDAFICYCPSDIQFVQEMIRQLEQTNYRLKLCVSDRDVLPGTCVWSIASELIEKRCRRMVVVVSDDYLQSKECDFQTKFALSLSPGAHQKRLIPIKYKAMKKEFPSILRFITVCDYTNPCTKSWFWTRLAKALSLP
modifications: biotin (EZ Link Biotin BMCC kit) on the copy in solution; the copy spotted on the slide is not biotinylated
notes: also called MyD88 (157-296); TIR domain protein (monomer); not shown: His, N-terminal, cleaved; MBP, N-terminal, cleaved
Question: Does B1 bind?
Answer: Result: binds
